Patent publication US10919943B2, “Mutant proteins enabling agrochemical control of plant gene expression” (The Regents of the University of California, priority 2016, dated 2021)

System: HAB1
Test: Yeast two hybrid of pBD-PYR1 site saturation mutants with pACT-HAB1 on 10 μM ABA, β-galactosidase staining
Assay type: cell-based, Arabidopsis
Set-up: key: x: Mutations in PYR1 that disrupt ABA-induced binding to PYR1 to HAB1
Conditions: S. cerevisiae Y190, 10 μM ABA; dead = lack of visible staining in comparison to wild type control
Excerpt: To systematically identify mutations in PYR1 that disrupt its binding to HAB1, we utilized a collection of saturating mutations that contain all possible single amino acid substitutions in 24 conserved interface residues involved in binding HAB1, which was previously constructed for the purpose of engineering constitutively active ABA receptor variants (Mosquna et al., 2011). The interface residues previously mutagenized in this collection are the following: H60, F61, I62, K63, I84, S85, G86, L87, P88, A89, H115, R116, L117, P148, G150, N151, D154, D155, T156, M158, F159, T162, L166, K170. This set was made by mutagenizing a pBD-PYR1 template that encodes a GAL4-DNA binding domain fusion to PYR1, which can be used to assess receptor-HAB1 binding in S. cerevisiae strains co-transformed with pACT-HAB1, which expresses a GAL4 activation domain fusion to HAB1. Mutant pBD-PYR1 clones from the collection are maintained in S. cerevisiae strain Y190 co-transformed with pACT-HAB1. The test strains were spotted onto agar plates containing synthetic dextrose dropout media lacking leucine and tryptophan [SD (-Leu, -Trp)] medium supplemented with 10 μM ABA. After incubating the test plates at 30° C. for two days, colonies were chloroform lysed and stained to reveal […] expression levels and “dead” mutants were defined by lack of visible staining in comparison to a wild type control. This effort defined 237 mutations that disrupt ABA-induced binding of PYR1 to HAB1 (Table 1). Premade yeast drop out supplements (Clontech) were utilized in this and other examples for media preparation, amino acids and other standard chemicals were purchased from Sigma-Aldrich (USA). The naturally occurring (+)-ABA isomer was used in all experiments and purchased from Biosynth Ag (Switzerland).

Molecule	Mutations in PYR1 that disrupt ABA-induced binding to PYR1 to HAB1
A89C: PYR1 mutant (protein, UniProt O49686 1-191, looked up, variant A89C) Abscisic acid receptor PYR1: MPSELTPEERSELKNSIAEFHTYQLDPGSCSSLHAQRIHAPPELVWSIVRRFDKPQTYKHFIKSCSVEQNFEMRVGCTRDVIVISGLPCNTSTERLDILDDERRVTGFSIIGGEHRLTNYKSVTTVHRFEKENRIWTVVLESYVVDMPEGNSEDDTRMFADTVVKLNLQKLATVAEAMARNSGDGSGSQVT	x
H115Q: PYR1 mutant (protein, UniProt O49686 1-191, looked up, variant H115Q) Abscisic acid receptor PYR1: MPSELTPEERSELKNSIAEFHTYQLDPGSCSSLHAQRIHAPPELVWSIVRRFDKPQTYKHFIKSCSVEQNFEMRVGCTRDVIVISGLPANTSTERLDILDDERRVTGFSIIGGEQRLTNYKSVTTVHRFEKENRIWTVVLESYVVDMPEGNSEDDTRMFADTVVKLNLQKLATVAEAMARNSGDGSGSQVT	x
A89K: PYR1 mutant (protein, UniProt O49686 1-191, looked up, variant A89K) Abscisic acid receptor PYR1: MPSELTPEERSELKNSIAEFHTYQLDPGSCSSLHAQRIHAPPELVWSIVRRFDKPQTYKHFIKSCSVEQNFEMRVGCTRDVIVISGLPKNTSTERLDILDDERRVTGFSIIGGEHRLTNYKSVTTVHRFEKENRIWTVVLESYVVDMPEGNSEDDTRMFADTVVKLNLQKLATVAEAMARNSGDGSGSQVT	x
H115R: PYR1 mutant (protein, UniProt O49686 1-191, looked up, variant H115R) Abscisic acid receptor PYR1: MPSELTPEERSELKNSIAEFHTYQLDPGSCSSLHAQRIHAPPELVWSIVRRFDKPQTYKHFIKSCSVEQNFEMRVGCTRDVIVISGLPANTSTERLDILDDERRVTGFSIIGGERRLTNYKSVTTVHRFEKENRIWTVVLESYVVDMPEGNSEDDTRMFADTVVKLNLQKLATVAEAMARNSGDGSGSQVT	x
H115M: PYR1 mutant (protein, UniProt O49686 1-191, looked up, variant H115M) Abscisic acid receptor PYR1: MPSELTPEERSELKNSIAEFHTYQLDPGSCSSLHAQRIHAPPELVWSIVRRFDKPQTYKHFIKSCSVEQNFEMRVGCTRDVIVISGLPANTSTERLDILDDERRVTGFSIIGGEMRLTNYKSVTTVHRFEKENRIWTVVLESYVVDMPEGNSEDDTRMFADTVVKLNLQKLATVAEAMARNSGDGSGSQVT	x
A89E: PYR1 mutant (protein, UniProt O49686 1-191, looked up, variant A89E) Abscisic acid receptor PYR1: MPSELTPEERSELKNSIAEFHTYQLDPGSCSSLHAQRIHAPPELVWSIVRRFDKPQTYKHFIKSCSVEQNFEMRVGCTRDVIVISGLPENTSTERLDILDDERRVTGFSIIGGEHRLTNYKSVTTVHRFEKENRIWTVVLESYVVDMPEGNSEDDTRMFADTVVKLNLQKLATVAEAMARNSGDGSGSQVT	x
H115P: PYR1 mutant (protein, UniProt O49686 1-191, looked up, variant H115P) Abscisic acid receptor PYR1: MPSELTPEERSELKNSIAEFHTYQLDPGSCSSLHAQRIHAPPELVWSIVRRFDKPQTYKHFIKSCSVEQNFEMRVGCTRDVIVISGLPANTSTERLDILDDERRVTGFSIIGGEPRLTNYKSVTTVHRFEKENRIWTVVLESYVVDMPEGNSEDDTRMFADTVVKLNLQKLATVAEAMARNSGDGSGSQVT	x
H115A: PYR1 mutant (protein, UniProt O49686 1-191, looked up, variant H115A) Abscisic acid receptor PYR1: MPSELTPEERSELKNSIAEFHTYQLDPGSCSSLHAQRIHAPPELVWSIVRRFDKPQTYKHFIKSCSVEQNFEMRVGCTRDVIVISGLPANTSTERLDILDDERRVTGFSIIGGEARLTNYKSVTTVHRFEKENRIWTVVLESYVVDMPEGNSEDDTRMFADTVVKLNLQKLATVAEAMARNSGDGSGSQVT	x
H115L: PYR1 mutant (protein, UniProt O49686 1-191, looked up, variant H115L) Abscisic acid receptor PYR1: MPSELTPEERSELKNSIAEFHTYQLDPGSCSSLHAQRIHAPPELVWSIVRRFDKPQTYKHFIKSCSVEQNFEMRVGCTRDVIVISGLPANTSTERLDILDDERRVTGFSIIGGELRLTNYKSVTTVHRFEKENRIWTVVLESYVVDMPEGNSEDDTRMFADTVVKLNLQKLATVAEAMARNSGDGSGSQVT	x
H115V: PYR1 mutant (protein, UniProt O49686 1-191, looked up, variant H115V) Abscisic acid receptor PYR1: MPSELTPEERSELKNSIAEFHTYQLDPGSCSSLHAQRIHAPPELVWSIVRRFDKPQTYKHFIKSCSVEQNFEMRVGCTRDVIVISGLPANTSTERLDILDDERRVTGFSIIGGEVRLTNYKSVTTVHRFEKENRIWTVVLESYVVDMPEGNSEDDTRMFADTVVKLNLQKLATVAEAMARNSGDGSGSQVT	x
A89Y: PYR1 mutant (protein, UniProt O49686 1-191, looked up, variant A89Y) Abscisic acid receptor PYR1: MPSELTPEERSELKNSIAEFHTYQLDPGSCSSLHAQRIHAPPELVWSIVRRFDKPQTYKHFIKSCSVEQNFEMRVGCTRDVIVISGLPYNTSTERLDILDDERRVTGFSIIGGEHRLTNYKSVTTVHRFEKENRIWTVVLESYVVDMPEGNSEDDTRMFADTVVKLNLQKLATVAEAMARNSGDGSGSQVT	x
H115C: PYR1 mutant (protein, UniProt O49686 1-191, looked up, variant H115C) Abscisic acid receptor PYR1: MPSELTPEERSELKNSIAEFHTYQLDPGSCSSLHAQRIHAPPELVWSIVRRFDKPQTYKHFIKSCSVEQNFEMRVGCTRDVIVISGLPANTSTERLDILDDERRVTGFSIIGGECRLTNYKSVTTVHRFEKENRIWTVVLESYVVDMPEGNSEDDTRMFADTVVKLNLQKLATVAEAMARNSGDGSGSQVT	x
A89D: PYR1 mutant (protein, UniProt O49686 1-191, looked up, variant A89D) Abscisic acid receptor PYR1: MPSELTPEERSELKNSIAEFHTYQLDPGSCSSLHAQRIHAPPELVWSIVRRFDKPQTYKHFIKSCSVEQNFEMRVGCTRDVIVISGLPDNTSTERLDILDDERRVTGFSIIGGEHRLTNYKSVTTVHRFEKENRIWTVVLESYVVDMPEGNSEDDTRMFADTVVKLNLQKLATVAEAMARNSGDGSGSQVT	x
A89H: PYR1 mutant (protein, UniProt O49686 1-191, looked up, variant A89H) Abscisic acid receptor PYR1: MPSELTPEERSELKNSIAEFHTYQLDPGSCSSLHAQRIHAPPELVWSIVRRFDKPQTYKHFIKSCSVEQNFEMRVGCTRDVIVISGLPHNTSTERLDILDDERRVTGFSIIGGEHRLTNYKSVTTVHRFEKENRIWTVVLESYVVDMPEGNSEDDTRMFADTVVKLNLQKLATVAEAMARNSGDGSGSQVT	x
A89I: PYR1 mutant (protein, UniProt O49686 1-191, looked up, variant A89I) Abscisic acid receptor PYR1: MPSELTPEERSELKNSIAEFHTYQLDPGSCSSLHAQRIHAPPELVWSIVRRFDKPQTYKHFIKSCSVEQNFEMRVGCTRDVIVISGLPINTSTERLDILDDERRVTGFSIIGGEHRLTNYKSVTTVHRFEKENRIWTVVLESYVVDMPEGNSEDDTRMFADTVVKLNLQKLATVAEAMARNSGDGSGSQVT	x
H115W: PYR1 mutant (protein, UniProt O49686 1-191, looked up, variant H115W) Abscisic acid receptor PYR1: MPSELTPEERSELKNSIAEFHTYQLDPGSCSSLHAQRIHAPPELVWSIVRRFDKPQTYKHFIKSCSVEQNFEMRVGCTRDVIVISGLPANTSTERLDILDDERRVTGFSIIGGEWRLTNYKSVTTVHRFEKENRIWTVVLESYVVDMPEGNSEDDTRMFADTVVKLNLQKLATVAEAMARNSGDGSGSQVT	x
A89F: PYR1 mutant (protein, UniProt O49686 1-191, looked up, variant A89F) Abscisic acid receptor PYR1: MPSELTPEERSELKNSIAEFHTYQLDPGSCSSLHAQRIHAPPELVWSIVRRFDKPQTYKHFIKSCSVEQNFEMRVGCTRDVIVISGLPFNTSTERLDILDDERRVTGFSIIGGEHRLTNYKSVTTVHRFEKENRIWTVVLESYVVDMPEGNSEDDTRMFADTVVKLNLQKLATVAEAMARNSGDGSGSQVT	x
H115T: PYR1 mutant (protein, UniProt O49686 1-191, looked up, variant H115T) Abscisic acid receptor PYR1: MPSELTPEERSELKNSIAEFHTYQLDPGSCSSLHAQRIHAPPELVWSIVRRFDKPQTYKHFIKSCSVEQNFEMRVGCTRDVIVISGLPANTSTERLDILDDERRVTGFSIIGGETRLTNYKSVTTVHRFEKENRIWTVVLESYVVDMPEGNSEDDTRMFADTVVKLNLQKLATVAEAMARNSGDGSGSQVT	x
H115S: PYR1 mutant (protein, UniProt O49686 1-191, looked up, variant H115S) Abscisic acid receptor PYR1: MPSELTPEERSELKNSIAEFHTYQLDPGSCSSLHAQRIHAPPELVWSIVRRFDKPQTYKHFIKSCSVEQNFEMRVGCTRDVIVISGLPANTSTERLDILDDERRVTGFSIIGGESRLTNYKSVTTVHRFEKENRIWTVVLESYVVDMPEGNSEDDTRMFADTVVKLNLQKLATVAEAMARNSGDGSGSQVT	x
